The text below walks through data of PMC10901488 (Chemical Science, 2024).

One data set in a line: Solubilization test. It counts as physicochemical. The following applies: model peptides before tagging, or product after reaction with Mal-(EK)3.
The conditions of data set [1]: due to its hydrophobicity; cited from earlier work.

For “1: C-terminal segment of IL-2 (residue 105–133) (CEYADETATIVEFLNRWITFCQSIISTLT; UniProt P60568 125-153, looked up, fragment) [compound 1]”, the “solubility (in words)” value in “Solubilization test” is recorded as “poor solubility”. In the case of insulin A chain: insulin A chain, in data set [1], the solubility entry is recorded as “poor solubility”.
